Biological target: kalium channelrhodopsin 1 from Hyphochytrium catenoides, slow-cycling mutant C110A (HcKCR1_C110A) (Hyphochytrium catenoides)
Assay: cryo-EM structure

- stoichiometry N: 3
Substance: kalium channelrhodopsin 1 from Hyphochytrium catenoides, slow-cycling mutant C110A (HcKCR1_C110A) (domain or fragment)
